# Source: paper PMC5638340
# Legend:
# [1] = target: Muscle-type nAChR of Torpedo californica electric organ (Torpedo californica); assay: radioligand binding
# [2] = target: Acetylcholine binding protein (AChBP) from Lymnaea stagnalis (L. stagnalis) (UniProt P58154); assay: radioligand binding
# [3] = target: Human α7 nAChR expressed in GH4C1 cells (human) (UniProt P36544); assay: radioligand binding
# [4] = target: Acetylcholine binding protein (AChBP) from Lymnaea stagnalis (L. stagnalis) (UniProt P58154); assay: SPR
# Chain of Acetylcholine binding protein (AChBP) from Lymnaea stagnalis (L. stagnalis) (P58154 20-229): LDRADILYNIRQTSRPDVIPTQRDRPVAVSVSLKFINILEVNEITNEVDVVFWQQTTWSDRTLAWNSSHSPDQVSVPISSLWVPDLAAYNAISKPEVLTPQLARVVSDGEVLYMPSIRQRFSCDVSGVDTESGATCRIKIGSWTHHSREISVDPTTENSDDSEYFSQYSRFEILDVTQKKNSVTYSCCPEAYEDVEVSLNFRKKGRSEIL
# Chain of Muscle-type nAChR of Torpedo californica electric organ (Torpedo californica) (P02710 25-461, chain 1 of 4): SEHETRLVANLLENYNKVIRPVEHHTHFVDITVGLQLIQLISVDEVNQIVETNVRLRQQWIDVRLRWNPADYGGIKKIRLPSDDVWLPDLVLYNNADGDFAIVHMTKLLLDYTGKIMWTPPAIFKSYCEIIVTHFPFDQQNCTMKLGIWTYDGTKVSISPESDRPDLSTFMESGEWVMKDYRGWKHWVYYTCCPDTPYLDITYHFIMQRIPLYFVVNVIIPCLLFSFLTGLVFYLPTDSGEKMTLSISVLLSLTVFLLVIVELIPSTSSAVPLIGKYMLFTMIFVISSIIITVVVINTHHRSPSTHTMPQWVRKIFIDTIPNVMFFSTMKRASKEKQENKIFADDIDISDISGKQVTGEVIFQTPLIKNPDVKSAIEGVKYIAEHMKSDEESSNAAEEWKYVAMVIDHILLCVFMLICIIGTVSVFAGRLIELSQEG
# Chain of Muscle-type nAChR of Torpedo californica electric organ (Torpedo californica) (P02712 25-493, chain 2 of 4, further chain): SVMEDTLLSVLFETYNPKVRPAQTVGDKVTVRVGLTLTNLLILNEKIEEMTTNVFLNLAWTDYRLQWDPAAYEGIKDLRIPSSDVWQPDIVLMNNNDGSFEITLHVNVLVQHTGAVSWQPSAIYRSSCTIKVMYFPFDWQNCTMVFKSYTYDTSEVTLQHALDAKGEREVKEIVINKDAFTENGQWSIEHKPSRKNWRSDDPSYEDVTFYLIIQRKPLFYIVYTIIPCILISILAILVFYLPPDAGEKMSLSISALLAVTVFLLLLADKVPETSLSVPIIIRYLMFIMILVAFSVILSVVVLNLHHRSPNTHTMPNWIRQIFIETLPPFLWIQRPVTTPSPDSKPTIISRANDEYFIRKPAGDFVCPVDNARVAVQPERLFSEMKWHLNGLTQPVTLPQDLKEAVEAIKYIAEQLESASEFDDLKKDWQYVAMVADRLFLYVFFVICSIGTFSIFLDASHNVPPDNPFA
# Chain of Muscle-type nAChR of Torpedo californica electric organ (Torpedo californica) (P02714 18-506, chain 3 of 4, further chain): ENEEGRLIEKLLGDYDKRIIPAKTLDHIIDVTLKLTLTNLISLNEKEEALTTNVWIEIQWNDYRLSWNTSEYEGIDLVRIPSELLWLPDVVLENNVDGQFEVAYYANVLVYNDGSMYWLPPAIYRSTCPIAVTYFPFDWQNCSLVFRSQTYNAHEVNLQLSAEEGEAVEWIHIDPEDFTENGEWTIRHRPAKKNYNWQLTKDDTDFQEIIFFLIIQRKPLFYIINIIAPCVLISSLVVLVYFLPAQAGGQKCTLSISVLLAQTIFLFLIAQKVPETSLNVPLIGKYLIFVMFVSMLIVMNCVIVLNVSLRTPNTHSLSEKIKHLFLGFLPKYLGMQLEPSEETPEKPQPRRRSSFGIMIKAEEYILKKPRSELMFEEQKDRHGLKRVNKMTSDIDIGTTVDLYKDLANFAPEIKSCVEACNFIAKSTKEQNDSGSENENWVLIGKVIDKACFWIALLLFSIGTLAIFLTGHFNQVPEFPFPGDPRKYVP
# Chain of Muscle-type nAChR of Torpedo californica electric organ (Torpedo californica) (P02718 22-522, chain 4 of 4, further chain): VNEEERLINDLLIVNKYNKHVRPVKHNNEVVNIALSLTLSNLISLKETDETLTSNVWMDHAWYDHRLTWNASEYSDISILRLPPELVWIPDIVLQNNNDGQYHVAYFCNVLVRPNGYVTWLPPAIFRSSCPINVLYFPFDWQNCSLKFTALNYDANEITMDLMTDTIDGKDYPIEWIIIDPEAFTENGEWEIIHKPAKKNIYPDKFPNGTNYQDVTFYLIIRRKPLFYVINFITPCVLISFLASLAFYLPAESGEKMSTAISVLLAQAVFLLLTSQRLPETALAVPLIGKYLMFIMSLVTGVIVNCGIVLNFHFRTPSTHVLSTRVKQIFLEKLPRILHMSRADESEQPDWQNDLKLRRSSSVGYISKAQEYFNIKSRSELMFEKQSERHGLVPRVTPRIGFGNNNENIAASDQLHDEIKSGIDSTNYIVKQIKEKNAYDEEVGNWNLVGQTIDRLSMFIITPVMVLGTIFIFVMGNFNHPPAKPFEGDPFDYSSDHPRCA
# Chain of Human α7 nAChR expressed in GH4C1 cells (human) (P36544 23-502): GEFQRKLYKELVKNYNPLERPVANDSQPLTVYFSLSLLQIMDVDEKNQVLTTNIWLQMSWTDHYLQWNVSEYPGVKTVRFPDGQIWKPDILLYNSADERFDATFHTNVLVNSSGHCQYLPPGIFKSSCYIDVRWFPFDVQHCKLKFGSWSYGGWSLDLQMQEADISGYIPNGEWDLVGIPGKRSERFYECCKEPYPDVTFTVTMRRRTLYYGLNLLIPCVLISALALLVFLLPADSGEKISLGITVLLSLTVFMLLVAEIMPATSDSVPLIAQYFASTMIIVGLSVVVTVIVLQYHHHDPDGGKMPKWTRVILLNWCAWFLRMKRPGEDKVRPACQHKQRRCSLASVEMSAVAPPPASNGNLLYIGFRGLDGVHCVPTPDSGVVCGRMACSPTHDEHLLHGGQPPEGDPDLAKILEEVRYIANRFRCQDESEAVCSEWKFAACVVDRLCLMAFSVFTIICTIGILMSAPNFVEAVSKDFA
substance,measurement,setting,value
Crotoxin from Crotalus durissus terrificus venom (complex),"IC50, high affinity site (two-site model)",[1],30 nM
same,"IC50, low affinity site (two-site model)",[1],260 nM
same,IC50,[2],640 nM
same,"IC50, high affinity site (two-site model)",[3],4.9 nM
same,"IC50, low affinity site (two-site model)",[3],15000 nM
same,Kd,[4],120 nM
